From the supplement of paper PMC10065799, “High-throughput profiling of sequence recognition by tyrosine kinases and SH2 domains using bacterial peptide display” (eLife, 2023)

Assays:
Hck = Hck (UniProt P08631); test: phosphorylation enrichment, bacterial display (enrichment ratio); higher = better substrate or ligand; peptides without Tyr show the background
Jak2 = Jak2 (UniProt O60674); test: as above
Fes = Fes (UniProt P07332); test: as above
FGFR1 = FGFR1 (UniProt P11362); test: as above
Fer (mouse) = test: as above
EPHB2 = EPHB2 (UniProt P29323); test: as above
EPHB1 = EPHB1 (UniProt P54762); test: as above
MERTK = MERTK (UniProt Q12866); test: as above
AncSZ = test: as above
FGFR3 = FGFR3 (UniProt P22607); test: as above
c-Src = test: as above
c-Abl (mouse) = test: as above
Fyn = Fyn (UniProt P06241); test: as above
c-Src SH2 = test: SH2 binding enrichment of the phosphorylated peptide, bacterial display (enrichment ratio); higher = better substrate or ligand; peptides without Tyr show the background
SHP2-C SH2 = test: as above
Grb2 SH2 = Grb2 SH2 (UniProt P62993); test: as above
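Wherever SH2 binding enrichment of the phosphorylated peptide, bacterial display is given: peptide library displayed on the E. coli surface as eCPX fusions, selected cells deep-sequenced, score is each peptide's frequency after selection divided by its frequency in the input.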
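Wherever phosphorylation enrichment, bacterial display is given: 11-residue human phosphosite peptides and single-mutation variants displayed on the E. coli surface, counted by deep sequencing, each peptide's frequency after selection divided by its frequency in the unselected input library; frequency after pTyr selection over input frequency; kinase dosed for 20-30% of maximal phosphorylation in three min.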

FGFR3, sequence (P22607 whole entry, looked up): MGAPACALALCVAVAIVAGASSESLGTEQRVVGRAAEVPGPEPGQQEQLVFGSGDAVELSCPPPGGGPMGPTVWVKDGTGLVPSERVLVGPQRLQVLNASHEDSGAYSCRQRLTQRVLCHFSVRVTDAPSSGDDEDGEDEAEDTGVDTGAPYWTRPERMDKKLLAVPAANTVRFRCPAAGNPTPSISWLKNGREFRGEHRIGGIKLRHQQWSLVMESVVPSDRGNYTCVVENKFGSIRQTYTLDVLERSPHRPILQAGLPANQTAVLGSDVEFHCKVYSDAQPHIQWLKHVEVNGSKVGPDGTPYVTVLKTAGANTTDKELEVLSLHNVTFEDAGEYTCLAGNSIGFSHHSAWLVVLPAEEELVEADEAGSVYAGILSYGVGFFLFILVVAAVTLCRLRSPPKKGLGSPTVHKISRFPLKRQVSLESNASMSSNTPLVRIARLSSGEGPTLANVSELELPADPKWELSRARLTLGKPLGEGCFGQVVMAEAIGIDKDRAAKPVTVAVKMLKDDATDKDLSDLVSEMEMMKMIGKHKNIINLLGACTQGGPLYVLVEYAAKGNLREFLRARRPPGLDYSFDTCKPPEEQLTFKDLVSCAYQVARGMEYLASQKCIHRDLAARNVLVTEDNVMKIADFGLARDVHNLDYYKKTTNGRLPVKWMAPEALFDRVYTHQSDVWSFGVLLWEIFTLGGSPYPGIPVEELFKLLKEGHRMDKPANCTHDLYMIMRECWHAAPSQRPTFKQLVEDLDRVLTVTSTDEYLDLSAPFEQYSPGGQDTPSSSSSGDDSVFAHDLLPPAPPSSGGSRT
EPHB2, sequence (P29323 whole entry, looked up): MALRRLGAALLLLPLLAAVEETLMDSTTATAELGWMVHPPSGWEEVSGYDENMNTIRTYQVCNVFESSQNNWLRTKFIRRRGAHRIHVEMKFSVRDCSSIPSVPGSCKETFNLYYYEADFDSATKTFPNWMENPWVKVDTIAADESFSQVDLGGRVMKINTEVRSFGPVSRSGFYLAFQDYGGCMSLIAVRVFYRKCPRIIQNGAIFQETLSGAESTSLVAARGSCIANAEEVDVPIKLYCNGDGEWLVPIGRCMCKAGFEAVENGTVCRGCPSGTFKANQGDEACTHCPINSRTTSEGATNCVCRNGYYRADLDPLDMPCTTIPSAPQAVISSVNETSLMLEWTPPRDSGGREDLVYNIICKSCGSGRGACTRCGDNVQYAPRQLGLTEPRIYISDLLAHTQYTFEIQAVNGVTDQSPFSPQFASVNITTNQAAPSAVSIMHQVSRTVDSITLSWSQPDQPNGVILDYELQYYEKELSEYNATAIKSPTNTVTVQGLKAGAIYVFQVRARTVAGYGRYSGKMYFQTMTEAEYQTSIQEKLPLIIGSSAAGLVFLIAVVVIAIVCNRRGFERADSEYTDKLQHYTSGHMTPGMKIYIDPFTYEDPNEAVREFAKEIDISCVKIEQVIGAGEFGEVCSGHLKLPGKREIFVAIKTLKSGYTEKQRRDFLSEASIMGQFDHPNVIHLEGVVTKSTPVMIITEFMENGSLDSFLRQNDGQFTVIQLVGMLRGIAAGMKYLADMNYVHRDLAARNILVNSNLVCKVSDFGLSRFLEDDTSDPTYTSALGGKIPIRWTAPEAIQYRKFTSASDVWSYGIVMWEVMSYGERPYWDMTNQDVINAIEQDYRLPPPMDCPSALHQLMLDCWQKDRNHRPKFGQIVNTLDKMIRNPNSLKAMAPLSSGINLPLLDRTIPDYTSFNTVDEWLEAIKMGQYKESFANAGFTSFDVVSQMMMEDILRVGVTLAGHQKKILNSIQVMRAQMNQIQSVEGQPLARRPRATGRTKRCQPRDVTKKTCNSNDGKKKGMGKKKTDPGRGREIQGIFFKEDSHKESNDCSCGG
Fyn, sequence (P06241 whole entry, looked up): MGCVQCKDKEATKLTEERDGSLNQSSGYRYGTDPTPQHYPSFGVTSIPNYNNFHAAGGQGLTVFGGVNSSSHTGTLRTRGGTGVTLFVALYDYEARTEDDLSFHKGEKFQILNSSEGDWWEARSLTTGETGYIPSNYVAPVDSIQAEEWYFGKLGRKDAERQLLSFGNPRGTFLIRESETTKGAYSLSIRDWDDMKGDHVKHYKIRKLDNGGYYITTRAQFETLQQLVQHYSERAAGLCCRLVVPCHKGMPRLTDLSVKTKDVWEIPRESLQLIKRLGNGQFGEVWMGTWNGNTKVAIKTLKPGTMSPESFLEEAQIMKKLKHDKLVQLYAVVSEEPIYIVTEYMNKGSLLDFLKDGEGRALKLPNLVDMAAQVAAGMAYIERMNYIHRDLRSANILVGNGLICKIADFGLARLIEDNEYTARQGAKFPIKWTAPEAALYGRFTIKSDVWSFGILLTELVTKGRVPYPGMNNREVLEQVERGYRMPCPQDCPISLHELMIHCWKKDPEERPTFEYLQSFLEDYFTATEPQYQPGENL
Hck, sequence (P08631 whole entry, looked up): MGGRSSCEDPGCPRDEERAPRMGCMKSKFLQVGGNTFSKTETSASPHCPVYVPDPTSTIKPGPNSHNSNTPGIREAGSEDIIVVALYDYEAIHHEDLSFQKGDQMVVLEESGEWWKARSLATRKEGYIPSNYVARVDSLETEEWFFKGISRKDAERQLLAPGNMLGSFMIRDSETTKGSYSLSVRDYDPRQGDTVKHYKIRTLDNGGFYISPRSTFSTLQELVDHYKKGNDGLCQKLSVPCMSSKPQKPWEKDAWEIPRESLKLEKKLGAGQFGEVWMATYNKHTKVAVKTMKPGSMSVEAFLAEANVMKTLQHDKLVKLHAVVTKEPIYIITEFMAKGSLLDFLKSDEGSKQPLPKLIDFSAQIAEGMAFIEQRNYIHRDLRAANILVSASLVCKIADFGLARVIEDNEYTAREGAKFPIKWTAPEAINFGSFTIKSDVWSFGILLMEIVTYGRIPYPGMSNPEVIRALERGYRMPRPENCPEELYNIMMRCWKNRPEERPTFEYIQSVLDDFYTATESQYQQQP
Fes, sequence (P07332 whole entry, looked up): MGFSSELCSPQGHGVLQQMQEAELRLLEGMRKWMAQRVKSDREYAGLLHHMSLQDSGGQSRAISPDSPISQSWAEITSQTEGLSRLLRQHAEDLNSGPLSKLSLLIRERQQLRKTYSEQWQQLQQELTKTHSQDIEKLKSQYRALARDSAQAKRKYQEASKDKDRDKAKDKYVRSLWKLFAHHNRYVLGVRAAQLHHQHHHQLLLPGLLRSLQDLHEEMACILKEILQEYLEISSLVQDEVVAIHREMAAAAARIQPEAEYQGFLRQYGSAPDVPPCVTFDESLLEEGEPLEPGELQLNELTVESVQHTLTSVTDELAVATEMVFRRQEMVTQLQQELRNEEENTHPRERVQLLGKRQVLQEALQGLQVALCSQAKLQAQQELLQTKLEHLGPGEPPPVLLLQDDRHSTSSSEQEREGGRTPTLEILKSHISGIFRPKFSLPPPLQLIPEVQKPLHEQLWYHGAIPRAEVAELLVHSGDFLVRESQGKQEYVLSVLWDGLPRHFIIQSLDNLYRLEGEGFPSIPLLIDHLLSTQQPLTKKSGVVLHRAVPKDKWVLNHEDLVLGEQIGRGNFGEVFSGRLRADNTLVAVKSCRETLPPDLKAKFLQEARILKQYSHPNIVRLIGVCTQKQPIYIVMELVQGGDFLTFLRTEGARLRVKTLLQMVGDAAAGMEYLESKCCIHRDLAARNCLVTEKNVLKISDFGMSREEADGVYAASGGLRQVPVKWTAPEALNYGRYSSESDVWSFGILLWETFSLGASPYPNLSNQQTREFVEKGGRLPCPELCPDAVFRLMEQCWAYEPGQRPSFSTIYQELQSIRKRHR
Jak2, sequence (O60674 whole entry, looked up): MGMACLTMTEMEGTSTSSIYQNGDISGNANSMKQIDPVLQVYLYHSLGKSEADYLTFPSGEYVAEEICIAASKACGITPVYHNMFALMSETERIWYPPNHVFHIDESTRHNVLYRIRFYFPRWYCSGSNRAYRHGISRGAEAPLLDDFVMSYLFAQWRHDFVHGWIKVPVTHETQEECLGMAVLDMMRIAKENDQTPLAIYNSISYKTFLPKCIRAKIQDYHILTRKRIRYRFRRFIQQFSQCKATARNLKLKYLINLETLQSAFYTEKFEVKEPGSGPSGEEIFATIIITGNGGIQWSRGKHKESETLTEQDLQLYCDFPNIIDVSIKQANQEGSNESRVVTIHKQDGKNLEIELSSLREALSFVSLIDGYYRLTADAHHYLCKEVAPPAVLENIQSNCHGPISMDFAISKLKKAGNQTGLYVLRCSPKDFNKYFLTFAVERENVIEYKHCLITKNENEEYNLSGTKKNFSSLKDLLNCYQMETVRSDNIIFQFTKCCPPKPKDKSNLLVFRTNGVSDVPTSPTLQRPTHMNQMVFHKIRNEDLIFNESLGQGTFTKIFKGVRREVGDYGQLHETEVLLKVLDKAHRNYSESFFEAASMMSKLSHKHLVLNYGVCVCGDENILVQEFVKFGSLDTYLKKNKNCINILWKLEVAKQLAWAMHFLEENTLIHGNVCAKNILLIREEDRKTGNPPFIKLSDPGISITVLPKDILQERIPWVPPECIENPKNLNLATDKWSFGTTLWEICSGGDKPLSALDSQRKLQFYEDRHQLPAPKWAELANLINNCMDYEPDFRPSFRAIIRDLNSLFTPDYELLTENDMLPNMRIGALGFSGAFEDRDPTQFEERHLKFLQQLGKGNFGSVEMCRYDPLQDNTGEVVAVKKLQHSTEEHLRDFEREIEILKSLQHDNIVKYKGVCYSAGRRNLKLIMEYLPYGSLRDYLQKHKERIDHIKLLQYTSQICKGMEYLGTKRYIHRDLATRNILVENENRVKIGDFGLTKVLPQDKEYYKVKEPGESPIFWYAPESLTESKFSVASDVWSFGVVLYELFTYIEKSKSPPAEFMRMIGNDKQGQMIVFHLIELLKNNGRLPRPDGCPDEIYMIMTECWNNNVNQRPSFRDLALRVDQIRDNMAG

Row | Sequence | phosphorylation enrichment (Hck) | phosphorylation enrichment (Jak2) | phosphorylation enrichment (Fes) | phosphorylation enrichment (FGFR1) | phosphorylation enrichment (Fer (mouse)) | phosphorylation enrichment (EPHB2) | phosphorylation enrichment (EPHB1) | phosphorylation enrichment (MERTK) | phosphorylation enrichment (AncSZ) | phosphorylation enrichment (FGFR3) | phosphorylation enrichment (c-Src) | phosphorylation enrichment (c-Abl (mouse)) | phosphorylation enrichment (Fyn) | SH2 binding enrichment (c-Src SH2) | SH2 binding enrichment (SHP2-C SH2) | SH2 binding enrichment (Grb2 SH2)
1 | AASTDYYKRGD [PDHA1_Y242] | 0.568 | 0.811 | 0.811 | 0.592 | 0.515 | 0.45 | 0.51 | 0.511 | 0.83 | 0.586 | 0.523 | 0.615 | 0.597 | 0.4 | 0.593 | 0.824
2 | AAYNKYDQERF [CDC73_Y293_R292K] | 0.299 | 0.739 | 0.762 | 0.332 | 0.419 | 0.335 | 0.364 | 0.287 | 0.54 | 0.454 | 0.398 | 0.588 | 0.371 | 0.58 | 0.863 | 0.923
3 | ACVARYIFKRL [LPCAT3_Y348_W344C] | 0.426 | 0.683 | 0.841 | 0.502 | 0.492 | 0.51 | 0.407 | 0.492 | 0.979 | 0.553 | 0.545 | 0.606 | 0.635 | 0.753 | 0.859 | 0.89
4 | ADEQIYWQIAA [CSKtide_2014] | 4.33 | 1.58 | 1.56 | 7.87 | 2.25 | 1.37 | 2.64 | 3.12 | 2.59 | 6.65 | 4.66 | 5.09 | 5.62 | 0.439 | 0.515 | 0.649
5 | ADIETYLLEKS [MYH7_Y266] | 0.551 | 0.871 | 1.12 | 0.484 | 0.431 | 0.582 | 0.466 | 0.46 | 1.04 | 0.635 | 0.731 | 0.746 | 0.554 | 0.405 | 0.88 | 0.755
6 | ADRNHYRRFPR [YBX1_Y145_YF] | 0.556 | 0.654 | 0.71 | 0.539 | 0.603 | 0.54 | 0.452 | 0.552 | 0.8 | 0.508 | 0.689 | 0.871 | 0.519 | 0.488 | 0.55 | 0.601
7 | AEFGLYGAMVW [VSX2_Y222_R227W_YF] | 2.93 | 1.38 | 1.48 | 0.645 | 2.1 | 1.15 | 0.729 | 1.06 | 1.26 | 0.887 | 2.69 | 0.995 | 3.08 | 0.457 | 0.656 | 0.805
8 | AELVPYFMEHH [PTPN11_Y80_Q79P_YF] | 0.562 | 1.02 | 1.15 | 0.531 | 0.515 | 0.602 | 0.605 | 0.463 | 0.913 | 0.614 | 0.883 | 0.741 | 0.636 | 0.607 | 0.787 | 0.876
9 | AELVRYYMEHH [PTPN11_Y80_Q79R] | 0.683 | 0.865 | 1.12 | 0.623 | 0.457 | 0.857 | 1.03 | 0.639 | 0.856 | 0.673 | 0.486 | 0.421 | 0.514 | 0.69 | 0.875 | 0.89
10 | AERKLYSGAQT [ZAP70_Y178] | 0.395 | 0.412 | 0.536 | 0.36 | 0.358 | 0.295 | 0.436 | 0.414 | 0.504 | 0.457 | 0.383 | 0.545 | 0.375 | 0.548 | 0.635 | 0.967
11 | AGIVVYNIIGW [MYH7_Y588_D587V] | 2.35 | 1.37 | 1.57 | 0.506 | 0.726 | 0.633 | 0.919 | 1.17 | 1.14 | 0.807 | 2.14 | 1.51 | 2.31 | 0.61 | 0.669 | 0.792
12 | AGLEDYDRLRP [RAC3_Y64_Q61L] | 0.894 | 0.931 | 0.933 | 0.836 | 0.62 | 0.791 | 0.505 | 0.402 | 1.13 | 0.744 | 0.485 | 0.657 | 0.544 | 0.547 | 0.888 | 0.732
13 | AIIEEYLHLND [EIF4G1_Y1253] | 0.492 | 0.959 | 1.19 | 0.564 | 0.487 | 0.498 | 0.564 | 0.376 | 1.02 | 0.736 | 0.411 | 0.585 | 0.493 | 0.446 | 0.855 | 0.763
14 | AIIEEYLHLSD [EIF4G1_Y1253_N1257S] | 0.655 | 1.19 | 1.4 | 0.592 | 0.6 | 0.698 | 0.714 | 0.515 | 1.24 | 0.838 | 0.458 | 0.885 | 0.635 | 0.561 | 0.752 | 0.749
15 | AKKKMYSLKTK [AGXT_Y231_R233L] | 0.44 | 0.795 | 0.791 | 0.389 | 0.373 | 0.463 | 0.317 | 0.435 | 0.404 | 0.853 | 0.434 | 0.773 | 0.365 | 1.54 | 1.51 | 1.2
16 | AKKKMYSRKTK [AGXT_Y231] | 0.496 | 0.455 | 0.505 | 0.546 | 0.443 | 0.385 | 0.437 | 0.457 | 0.595 | 0.476 | 0.42 | 0.478 | 0.431 | 0.409 | 0.488 | 0.638
17 | ALKKPYSVLYK [RPF2_Y59_G60S] | 0.474 | 0.467 | 0.674 | 0.385 | 0.44 | 0.433 | 0.399 | 0.436 | 0.603 | 0.406 | 0.454 | 0.516 | 0.36 | 1.38 | 1.65 | 1.72

Row | Sequence | phosphorylation enrichment (Hck) | phosphorylation enrichment (Jak2) | phosphorylation enrichment (Fes) | phosphorylation enrichment (FGFR1) | phosphorylation enrichment (Fer (mouse)) | phosphorylation enrichment (EPHB2) | phosphorylation enrichment (EPHB1) | phosphorylation enrichment (MERTK) | phosphorylation enrichment (AncSZ) | phosphorylation enrichment (FGFR3) | phosphorylation enrichment (c-Src) | phosphorylation enrichment (c-Abl (mouse)) | phosphorylation enrichment (Fyn) | SH2 binding enrichment (c-Src SH2) | SH2 binding enrichment (SHP2-C SH2) | SH2 binding enrichment (Grb2 SH2)
18 | ALTDNYMYLVI [HAGH_Y61] | 1.34 | 2.46 | 1.49 | 8.82 | 3.5 | 8.35 | 9.55 | 3.34 | 1.43 | 6.43 | 1.03 | 0.813 | 0.848 | 0.437 | 0.544 | 0.819
19 | AMGPVYQAAAL [HYOU1_Y421_A419P] | 6.53 | 0.615 | 0.611 | 0.502 | 6.15 | 1.25 | 0.933 | 1.03 | 0.657 | 0.435 | 4.05 | 3.43 | 5.43 | 0.528 | 0.826 | 0.736
20 | ANNPLYKEVTS [ITGB3_Y773_A776V] | 0.551 | 0.691 | 0.797 | 0.495 | 0.486 | 0.409 | 0.506 | 0.481 | 0.695 | 0.58 | 0.467 | 0.584 | 0.428 | 0.733 | 0.563 | 1.07
21 | APVEDYGGGGG [B4GALT6_Y382_I379V] | 0.452 | 0.62 | 0.882 | 0.473 | 0.409 | 0.552 | 0.503 | 0.418 | 0.822 | 0.641 | 0.392 | 0.481 | 0.496 | 0.425 | 0.768 | 0.764
22 | ARAHKYHGGGG [HBB_Y146_L142R] | 0.302 | 0.379 | 0.443 | 0.324 | 0.28 | 0.273 | 0.246 | 0.276 | 0.384 | 0.371 | 0.312 | 0.474 | 0.312 | 0.902 | 0.799 | 1.39
23 | ARLEYYENEKK [IRS1_Y47] | 0.482 | 0.849 | 1.01 | 0.592 | 0.491 | 0.506 | 0.686 | 0.571 | 1.08 | 0.733 | 0.528 | 0.808 | 0.595 | 9.04 | 0.888 | 1.34
24 | ASFPLYEPAKM [MKI67_Y340] | 8.34 | 0.484 | 1.52 | 0.426 | 16.3 | 21.1 | 18.1 | 3.18 | 0.789 | 0.493 | 2.97 | 0.635 | 4.36 | 0.535 | 0.707 | 0.889
25 | ASGKFYAMKIL [AKT3_Y174_YF] | 0.53 | 0.801 | 1.07 | 0.609 | 0.543 | 0.625 | 0.519 | 0.509 | 0.858 | 0.589 | 0.426 | 0.675 | 0.529 | 0.763 | 1.05 | 1
26 | ASMAKYFASEI [ACADSB_Y372_YF] | 0.384 | 0.817 | 0.842 | 0.709 | 0.449 | 0.436 | 0.484 | 0.416 | 0.721 | 0.781 | 0.35 | 0.474 | 0.504 | 0.497 | 0.677 | 0.75
27 | ATDLAYFLVCK [ASL_Y375_R379C_YF] | 0.674 | 2.42 | 1.61 | 1.16 | 0.698 | 0.617 | 0.789 | 0.517 | 1.6 | 1.26 | 0.655 | 1.1 | 0.564 | 0.425 | 0.748 | 0.776
28 | ATDLAYFLVRE [ASL_Y375_K380E_YF] | 0.782 | 2.29 | 1.51 | 4.9 | 0.797 | 0.953 | 1.02 | 0.694 | 1.54 | 3.95 | 0.783 | 0.939 | 0.809 | 1.26 | 1.67 | 0.827
29 | ATPKGYELDAS [OTC_Y223_P225L] | 0.442 | 1 | 0.903 | 0.466 | 0.465 | 0.551 | 0.442 | 0.491 | 0.966 | 0.557 | 0.405 | 0.697 | 0.478 | 0.627 | 0.665 | 0.878
30 | AVARPYHIQKW [ACSBG1_Y677_A673V] | 0.402 | 0.461 | 0.584 | 0.468 | 0.332 | 0.358 | 0.381 | 0.362 | 0.643 | 0.506 | 0.401 | 0.573 | 0.391 | 1.27 | 1.31 | 1.85
31 | AVLQPYIFVAT [CFTR_Y1014] | 0.586 | 1.84 | 1.69 | 1.2 | 0.674 | 0.804 | 0.84 | 0.55 | 1.56 | 1.41 | 0.701 | 0.978 | 0.606 | 0.329 | 0.545 | 0.65
32 | AVLSLYASDRT [ACTA1_Y145_G148D] | 0.538 | 0.884 | 1.14 | 0.476 | 0.515 | 0.664 | 0.662 | 0.446 | 0.967 | 0.666 | 0.465 | 0.893 | 0.637 | 0.452 | 0.88 | 0.895
33 | AYGNLYGSRKQ [YIPF7_Y59] | 6.04 | 0.516 | 0.462 | 0.484 | 0.367 | 0.3 | 0.324 | 0.502 | 0.525 | 0.481 | 2.08 | 0.442 | 1.38 | 0.593 | 0.584 | 0.748
